These results are taken from patent US20220259593A1, “CONTROL OF MAMMALIAN GENE DOSAGE USING CRISPR” (The Regents of the University of California, priority 2019, published 2022).

First the molecules themselves.
B1: cr413 (nucleic acid)
guide: GTTTAAGAGCTAAGCTGGAAACAGCATAGCAACTTTAAATAAGGCTAGTCCGTTATCAACTTGAAAAAGTGGCAACGAGTCGTTGCT
modifications: listed as DNA, chemistry not fully specified
B2: cr337 (nucleic acid)
guide: GTTTAAGAGCTAAGCTGGAAACAGCATAGCAAGTTTAAATAACGCTAGTCGGTTATCAACTTGAGAAAGTGGCACCGAGTCGGTGCT
modifications: listed as DNA, chemistry not fully specified
B3: cr041 (nucleic acid)
guide: GCTTCAGAGCTAAGCTGGAAACAGCATAGCAAGTTTAAATAAGGCTAGTCCGTTATCAACTTGAAAAAGTGGCACCGAGTCGGTGCT
modifications: listed as DNA, chemistry not fully specified
B4: cr475 (nucleic acid)
guide: GTTTAAGAGCTAAGCTGGAAACAGCATAGCAAGTTTAAATTAGGCTAGTCCGTTATCAACTTGATAAAGTGGCACCGAGTCGGTGCT
modifications: listed as DNA, chemistry not fully specified
B5: cr665 (nucleic acid)
guide: GTTTAAGAGCTAAGCTGGAAACAGCATAGCAACTTTAAATAAGGCTAGTCCGTTATCAACTTGAAAAAGTGCCACCGAGTCGGTGGT
modifications: listed as DNA, chemistry not fully specified
B6: cr268 (nucleic acid)
guide: GTTTAAGAGCTAAGCTGGAAACAGCATAGCAAGGTTAAATAAGGCTAGTCCGTTATCAACTTGAAAAAGTGGCACAGAGTCTGTGCT
modifications: listed as DNA, chemistry not fully specified
B7: cr310 (nucleic acid)
guide: GTTTAAGAGCTAAGCTGGAAACAGCATAGCAAGTTTAAATTAGGCTAGTCCGTTATCAACTTGAATAAGTGGCACCGAGTCGGTGCT
modifications: listed as DNA, chemistry not fully specified
B8: cr204 (nucleic acid)
guide: GTTTAAGAGCTAAGCTGGAAACAGCATAGCAAGCTTAAATAAGTCTAGTACGTTATCAACTTGAAAAAGTGGCACCGAGTCGGTGCT
modifications: listed as DNA, chemistry not fully specified
B9: cr103 (nucleic acid)
guide: GTTTAAGAGCTAAGCTGGAAACAGCATAGCATGTTTAAATAAGGCTAGTCCTTTATCAACTTGAAAAAGTGGCACCGAGGCGGTGCT
modifications: listed as DNA, chemistry not fully specified
B10: cr280 (nucleic acid)
guide: GTTTAAGAGCTAAGCTGGAAACAGCATAGCAACTTTAAATAAGGCTAGTCCGTTATCAACTTGAAAAAGTGTCACCGAGTCGGTGAT
modifications: listed as DNA, chemistry not fully specified
B11: cr079 (nucleic acid)
guide: GGTCAAGAGCTAAGCTGGAAACAGCATAGCAAGTTTAAATAAGGCTAGTCCGTTATCAACTTGAAAAAGTGGCACCGAGTCGGTGCT
modifications: listed as DNA, chemistry not fully specified
B12: cr773 (nucleic acid)
guide: GTTTAAGAGCTAAGCTGGAAACAGCATAGCAAGGTTAAATAAGGCTTGTCCGTTATCAACTTGGAAAAGTGGCACCGAGTCGGTGCT
modifications: listed as DNA, chemistry not fully specified
B13: cr562 (nucleic acid)
guide: GTTTAAGAGCTAAGCTGGAAACAGCATAGCGACTTTAAATAAGGCTAGTCCGTTATCAACTTGAGAAAGTGGCACCGAGTCGGTGCT
modifications: listed as DNA, chemistry not fully specified
B14: cr028 (nucleic acid)
guide: GTCCAAGAGCTAAGCTGGAAACAGCATAGCAAGTTTAAATAAGGCTAGTCCGTTATCAACTTGAAAAAGTGGCACCGAGTCGGTGCT
modifications: listed as DNA, chemistry not fully specified
B15: cr424 (nucleic acid)
guide: GTTTAAGAGCTAAGCTGGAAACAGCATAGCAAGTTTAAATAACGCTAGTCGGTTATCAACTTGAAAAAGTGGCGTCGAGTCGACGCT
modifications: listed as DNA, chemistry not fully specified
B16: cr649 (nucleic acid)
guide: GTTTAAGAGCTAAGCTGGAAACAGCATAGCAACTTTAAATAAGGTTAATCCGTTATCAACTTGAAAAAGTGGCACCGAGTCGGTGCT
modifications: listed as DNA, chemistry not fully specified
B17: cr191 (nucleic acid)
guide: GTTTAAGAGCTAAGCTGGAAACAGCATAGCAACTTTAAATAAGGCTAGTCCGTTATCAACTTGAAAAAGTGGCAGCGAGTCGCTGCT
modifications: listed as DNA, chemistry not fully specified
B18: cr248 (nucleic acid)
guide: GTTTAAGAGCTAAGCTGGAAACAGCATAGCAAGTTTAAATAACGCTAGTCGGTTATCAACTTGAAAAAGTGGCACCGAGTCGGTGCT
modifications: listed as DNA, chemistry not fully specified
B19: cr332 (nucleic acid)
guide: GTTTAAGAGCTAAGCTGGAAACAGCATAGCAATATTAAATAAGGCTAGTCCGTTATCAACTTGAAAAAGTGGCACCGAGTCGGTGCT
modifications: listed as DNA, chemistry not fully specified
B20: cr024 (nucleic acid)
guide: TTGTAAGAGCTAAGCTGGAAACAGCATAGCAAGTTTAAATAAGGCTAGTCCGTTATCAACTTGAAAAAGTGGCACCGAGTCGGTGCT
modifications: listed as DNA, chemistry not fully specified
B21: cr528 (nucleic acid)
guide: GTTTAAGAGCTAAGCTGGAAACAGCATAGCCGCTTTAAATAAGGCTAGTCCGTTATCAACTTGAAAAAGTGGCACCGAGTCGGTGCT
modifications: listed as DNA, chemistry not fully specified
B22: cr750 (nucleic acid)
guide: GTTTAAGAGCTAAGCTGGAAACAGCATAGCAAGGTTAAATAAGGCTAGTCCGTTATCAATTTGAAAAAATGGCACCGAGTCGGTGCT
modifications: listed as DNA, chemistry not fully specified
B23: cr157 (nucleic acid)
guide: GTTTAAGAGCTAAGCTGGAAACAGCATAGCAACTTTAAATAAGGCTAGTCCGTTATCAACTTGAAAAAGTGGCATCGAGTCGATGCT
modifications: listed as DNA, chemistry not fully specified
B24: cr316 (nucleic acid)
guide: GTTTAAGAGCTAAGCTGGAAACAGCATAGCAAGTTTAAATAATGCTAGTCAGTTATCAACTTGAAAAAGTGGCACCAAGTTGGTGCT
modifications: listed as DNA, chemistry not fully specified
B25: cr111 (nucleic acid)
guide: GTTTAAGAGCTAAGCTGGAAACAGCATAGCAACTTTAAATAAGGCTAGTCCGTTATCAACTTGAAAAAGTGGCACAGAGTCTGTGCT
modifications: listed as DNA, chemistry not fully specified
B26: cr613 (nucleic acid)
guide: GTTTAAGAGCTAAGCTGGAAACAGCATAGCAAGTTTAAATAACGGTACTCGGTTATCAACTTGAAAAAGTGGCACCGAGTCGGTGCT
modifications: listed as DNA, chemistry not fully specified
B27: cr214 (nucleic acid)
guide: GTTTAAGAGCTAAGCTGGAAACAGCATAGCAAGTTTAAATAAGGCTAGTCCGTTATCAACTTGAGAAAGTGGCAACGAGTCGTTGCT
modifications: listed as DNA, chemistry not fully specified
B28: cr704 (nucleic acid)
guide: GTTTAAGAGCTAAGCTGGAAACAGCATAGCAAGTTTAAATAAGGCTAGTCCGTTATCAACTTGAAAAAGCGGCACCGAGTCGGTGCT
modifications: listed as DNA, chemistry not fully specified
B29: cr628 (nucleic acid)
guide: GTTTAAGAGCTAAGCTGGAAACAGCATAGCAAGTTTAAATAAGGCTAGTCCGTTATCAACTTGAAAAAGTGGTACCAAGTTGGTACT
modifications: listed as DNA, chemistry not fully specified

The subject of the first data set is K562 CRISPRi cells. Kind of data set: Constant region variant library pooled growth screen, K562. Type of data set: cell-based, human. To be noted: sgRNA constant region variant; activity relative to unmodified constant region cr995; mean CRISPRi activity. In short, it runs like this: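 Relative activity expresses each targeting sequence:constant region pair's phenotype over that of the unmodified constant region. Pooled growth screen ran in K562 CRISPRi cells in duplicate spinner-flask replicates, with puromycin selection and 4–8 days' growth at >2000× coverage; library paired variants with 36 targeting sequences.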
B1 came in with a Mean relative activity of 0.01427.
Take B2: the Mean relative activity is 0.01313.
B3 returned a Mean relative activity of 0.01415.
On the same count and under the same terms, the same measure for B4: 0.0113; for B5: 0.01294.
On the same count and under the same terms, the same measure for B6: 0.01166; for B7: 0.01363.
On the same count and under the same terms, the value for B8 was 0.01236; that for B9 was 0.01259.
As to B10, the Mean relative activity is 0.01273.
B11: the Mean relative activity is given as 0.01223.
In turn, B12 showed a Mean relative activity of 0.01327.
Still for that read-out and setting: the value for B13 was 0.01393; that for B14 was 0.01375.
The same measure, in the same setting: the same measure for B15: 0.01319; for B16: 0.01138; for B17: 0.01358.
On the same count and under the same terms, the value for B18 was 0.01369; that for B19 was 0.01145; that for B20 was 0.01205.
B21 had a Mean relative activity of 0.01243.
The same measure, in the same setting: the same measure for B22: 0.01125.
Same read-out and setting: the value for B23 was 0.01383.
Still for that read-out and setting: the same measure for B24: 0.01422; for B25: 0.013; for B26: 0.01125.

Staying with this data set, now noted: sgRNA constant region variants; activity relative to the original, un-modified constant region cr995.
The molecule B27 registered a Mean relative activity of 1.033.
In turn, B28 came in with a Mean relative activity of 1.033.
Still for that read-out and setting: the value for B29 was 1.033.
